System: CC(C)(COP(=O)(O)OP(=O)(O)OC[C@H]1O[C@@H](n2cnc3c(N)ncnc32)[C@H](O)[C@@H]1OP(=O)(O)O)[C@@H](O)C(=O)NCCC(=O)NCCSC(=O)C[C@@](C)(O)CC(=O)O
Experiment: purified protein
Type: biochemical, Nakaseomyces glabratus
Conditions: NADPH co-substrate, Tris-HCl; HMG-CoA 1-64 µM; MBP fusion

Row | Substance | Km [µM]
1 | CgHMGR (Rec-MBP-CgHMGR, catalytic domain of Candida glabrata HMGR) (Nakaseomyces glabratus CBS 138; D805A) | 11.84
2 | CgHMGR (Rec-MBP-CgHMGR, catalytic domain of Candida glabrata HMGR) (Nakaseomyces glabratus CBS 138; E711Q) | 18
3 | CgHMGR (Rec-MBP-CgHMGR, catalytic domain of Candida glabrata HMGR) (Nakaseomyces glabratus CBS 138; E680Q) | 8.31
